Measured values: US20230348571A1 (VANDERBILT UNIVERSITY, published 2023)

T1: Jo-1 (UniProt P12081 2-509)
T1 construct: Kit antigen
T1 sequence: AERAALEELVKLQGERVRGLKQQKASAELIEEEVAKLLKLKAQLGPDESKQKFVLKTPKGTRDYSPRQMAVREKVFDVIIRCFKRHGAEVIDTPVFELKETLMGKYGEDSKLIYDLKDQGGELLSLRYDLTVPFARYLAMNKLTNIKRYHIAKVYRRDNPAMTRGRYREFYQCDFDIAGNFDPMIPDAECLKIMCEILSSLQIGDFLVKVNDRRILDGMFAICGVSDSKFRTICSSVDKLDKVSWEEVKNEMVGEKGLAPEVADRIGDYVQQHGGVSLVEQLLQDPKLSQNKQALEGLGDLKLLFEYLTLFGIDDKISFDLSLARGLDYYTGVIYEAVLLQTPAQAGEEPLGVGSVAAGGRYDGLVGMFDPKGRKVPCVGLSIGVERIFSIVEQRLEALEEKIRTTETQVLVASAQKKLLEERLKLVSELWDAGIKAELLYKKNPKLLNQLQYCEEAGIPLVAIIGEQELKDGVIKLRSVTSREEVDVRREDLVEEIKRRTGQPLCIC

T2: SS-B/La (UniProt P05455 1-408)
T2 construct: Kit antigen
T2 sequence: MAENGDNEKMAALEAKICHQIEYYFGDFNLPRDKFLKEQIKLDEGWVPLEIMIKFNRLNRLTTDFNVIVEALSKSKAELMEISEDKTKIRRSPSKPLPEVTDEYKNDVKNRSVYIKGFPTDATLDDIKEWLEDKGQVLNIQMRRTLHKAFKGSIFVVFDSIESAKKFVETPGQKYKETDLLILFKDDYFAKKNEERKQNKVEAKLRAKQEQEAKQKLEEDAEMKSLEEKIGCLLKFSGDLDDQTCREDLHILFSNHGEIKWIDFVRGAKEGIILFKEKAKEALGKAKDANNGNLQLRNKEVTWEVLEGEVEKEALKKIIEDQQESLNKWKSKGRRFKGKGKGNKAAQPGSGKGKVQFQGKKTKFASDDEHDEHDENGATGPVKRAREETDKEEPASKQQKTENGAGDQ

T3: Scl 70 (UniProt P11387 2-765)
T3 construct: Kit antigen
T3 sequence: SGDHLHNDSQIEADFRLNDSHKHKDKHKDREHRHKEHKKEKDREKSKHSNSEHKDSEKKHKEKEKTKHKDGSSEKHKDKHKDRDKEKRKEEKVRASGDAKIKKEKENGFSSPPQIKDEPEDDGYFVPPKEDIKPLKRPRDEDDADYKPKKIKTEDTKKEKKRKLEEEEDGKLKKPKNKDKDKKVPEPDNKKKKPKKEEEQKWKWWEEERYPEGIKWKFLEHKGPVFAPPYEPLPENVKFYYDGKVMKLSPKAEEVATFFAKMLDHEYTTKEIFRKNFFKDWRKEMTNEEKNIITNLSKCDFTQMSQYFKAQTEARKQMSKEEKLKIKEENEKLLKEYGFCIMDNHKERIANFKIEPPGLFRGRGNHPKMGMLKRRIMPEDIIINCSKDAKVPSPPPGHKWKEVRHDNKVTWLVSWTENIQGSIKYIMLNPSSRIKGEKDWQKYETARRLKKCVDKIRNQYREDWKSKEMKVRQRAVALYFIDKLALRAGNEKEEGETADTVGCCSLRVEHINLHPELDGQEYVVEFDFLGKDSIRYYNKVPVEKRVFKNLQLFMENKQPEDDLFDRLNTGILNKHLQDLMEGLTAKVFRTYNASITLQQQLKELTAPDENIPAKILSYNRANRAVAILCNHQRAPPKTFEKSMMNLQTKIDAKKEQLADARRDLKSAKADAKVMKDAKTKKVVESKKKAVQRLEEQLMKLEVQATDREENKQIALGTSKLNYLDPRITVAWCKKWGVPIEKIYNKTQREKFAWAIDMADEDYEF

T4: centromere B (UniProt P07199 2-599)
T4 construct: Kit antigen
T4 sequence: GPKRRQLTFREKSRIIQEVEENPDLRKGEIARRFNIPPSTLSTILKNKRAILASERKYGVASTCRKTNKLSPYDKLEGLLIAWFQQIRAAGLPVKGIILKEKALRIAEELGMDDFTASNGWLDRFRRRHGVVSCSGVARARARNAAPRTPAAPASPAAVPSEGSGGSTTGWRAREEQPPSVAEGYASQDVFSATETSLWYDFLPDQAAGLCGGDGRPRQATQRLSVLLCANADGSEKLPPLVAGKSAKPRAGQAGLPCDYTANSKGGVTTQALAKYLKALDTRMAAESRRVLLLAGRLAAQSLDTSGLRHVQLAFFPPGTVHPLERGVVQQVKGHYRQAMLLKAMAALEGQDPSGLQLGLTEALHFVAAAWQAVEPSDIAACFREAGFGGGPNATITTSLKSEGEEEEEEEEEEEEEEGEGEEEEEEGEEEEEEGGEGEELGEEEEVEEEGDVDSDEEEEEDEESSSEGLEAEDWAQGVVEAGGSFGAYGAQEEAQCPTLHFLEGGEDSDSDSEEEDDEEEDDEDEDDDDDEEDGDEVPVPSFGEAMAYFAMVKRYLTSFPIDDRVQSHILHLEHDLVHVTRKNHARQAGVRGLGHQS

B1: 46472-4 (antibody, V domains shown)
VH: EVPLLESGGGLVQPGGSLRLSCVASGFPFSSFALSWVRQAPGKGLEWVSTINTNGGTTYYLDSVKGRFTVSRDNSKNTLFLQMSSLRAEDTAIYYCAKDLLSHSGTYSAGSTFDYWGQGTLVIVSS
VL: DIQMTQSPSSLSASVGDRVTITCRASQSIGVYLNWYQQKPGKAPKLLIHATSNLQSGVPSRFSCSGSGTEFTLTISSLQPEDFATYYCQESYSTNTFGQGTKLEIK
B2: 46472-6 (antibody, V domains shown)
VH: QLQLQESGPGLVKPSETLFLFCSVSGGSISISTHYWEWIRQPPGKGLEWIGSFYSSGTTYYNPSLKGRVTISADTSKSQISLKMSSVTAADTAVYYCARRPQYLLLSMTTGRRHHDFVMDVWGQGTTVTVSS
VL: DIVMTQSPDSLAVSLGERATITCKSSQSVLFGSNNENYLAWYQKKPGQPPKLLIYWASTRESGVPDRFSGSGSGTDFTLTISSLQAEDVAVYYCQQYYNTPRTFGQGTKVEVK
B3: 46472-12 (antibody, V domains shown)
VH: QVQLVQSGAEVQKPGASVKVSCKASGYRFDIFDINWVRQASGQGPEWMGWMNPNSGNTGYAHKFQGRVTMTRDSSTNTAYMELSSLTFEDTAVYYCARDRVERTGNVGFGYYAMDVWGQGTTVIVSS
VL: DIQMTQSPSSLSASVGDRVTITCRASQSITNYLNWYQQRPGKAPRLLIYAASSLQSGVPSRFSGSGSGTDFTLTISSLQPEDFGTFYCQQTYSSPSYTFGQGTKLEMK
B4: 46472-3 (antibody, V domains shown)
VH: QVQLVESGGGVVQPGRSLRLSCAASGFTFSVYPMHWVRQAPGRGLEWVAVISYDGSNQYYADSVRGRFTISRDNSKNTLYLHMNSLRPEDTAVFYCARDRSATYYGPFDYWGQGTLVTVSS
VL: SSELTQDPAVSVALGQTVRITCQGDSLRSYSASWYQQKPSQAPVLVIYANNNRPSGIPDRFSGSNSGNTASLTITGAQAEDEADYYCNSRDNSGNHPVIFGGGTTLTVL
B5: 46472-1 (antibody, V domains shown)
VH: QVQLVQSGAEVKKDGSSVKVSCEASGGTFSDYAISWVRQAPGQGLEWMGRIIPILGITNYAQQFQTRVTITADKSTSAVYMELSSLRSKDTAIYYCAREVNYYSAFDDWGQGTQVTVSS
VL: EIVMTQSPDTLSVSPGERATLSCRASQNVSSNLAWYQQKPGQAPRLLIYDASTRATGIPARFSGSGSGTEFTLAISSLQSEDFAVYYCQQYNFWWTFGQGTKVDIK
B6: 46472-2 (antibody, V domains shown)
VH: EVQLVQSGAEVKKPGESLRISCKGSGYRFITYWISWVRQMPGRGLEWMGKIDPSDSSTNYSPSFQGHVAISVDKSFNTAYLQWSRLNTSDTAMYYCAAGPTGYDLLTGQYFPYFNYWAQGTLVTVSS
VL: NFMLTQPHSVSESPGKTVSISCTRSSGSIASKFMQWYQQRPGSAPTILIYEDNLRPSGVPDRFSGSIDTSSNSALLTISGLKTEDEADYYCQSYHGSDVVFGGGTKLTVL

Experiments:
[1] = molecular target: T5, SARS-CoV-2 S2 domain (SARS-CoV-2, UniProt P0DTC2 686-1213); experiment: ELISA on SARS-CoV-2 subdomain proteins (FIG. 15A, FIG. 19A)
T5 construct: domain: S2; also called the S2 domain

[2] = molecular target: T1, Jo-1; experiment: Luminex AtheNA Multi-Lyte ANA-II Plus bead assay
[3] = molecular target: T2, SS-B/La; experiment: Luminex AtheNA Multi-Lyte ANA-II Plus bead assay
[4] = molecular target: T3, Scl 70; experiment: Luminex AtheNA Multi-Lyte ANA-II Plus bead assay
[5] = molecular target: T4, centromere B; experiment: Luminex AtheNA Multi-Lyte ANA-II Plus bead assay
[6] = molecular target: T6, SARS-CoV-2 NTD (SARS-CoV-2, UniProt P0DTC2 16-305); experiment: ELISA on RBD and NTD proteins (FIG. 15B, FIG. 19B)
T6 construct: domain: NTD; also called the NTD; N-terminal domain

[7] = molecular target: T7, SARS-CoV-2 S1 domain (SARS-CoV-2, UniProt P0DTC2 16-685); experiment: ELISA on SARS-CoV-2 subdomain proteins (FIG. 15A, FIG. 19A)
T7 construct: domain: S1; also called the S1 domain

Binder | binding result [1] | binding result [2] | binding result [3] | binding result [4] | binding result [5] | binding result [6] | binding result [7]
B1 | binds | no binding | no binding | no binding | no binding | – | –
B2 | – | – | no binding | no binding | no binding | binds | binds
B3 | – | no binding | no binding | no binding | no binding | – | binds
B4 | binds | no binding | no binding | no binding | no binding | – | –
B5 | binds | no binding | no binding | no binding | no binding | – | –
B6 | binds | no binding | no binding | no binding | no binding | – | –
